# In patent US6949366 (Amgen, dated 2005):
# B1: human B61 (ligand, UniProt P20827 19-182, looked up)
# chain: DRHTVFWNSSNPKFRNEDYTIHVQLNDYVDIICPHYEDHSVADAAMEQYILYLVEHEEYQLCQPQSKDQVRWQCNRPSAKHGPEKLSEKFQRFTPFTLGKEFKEGHSYYYISKPIHQHEDRCLRLKVTVSGKITHSPQAHDNPQEKRLAADDPEVRVLHSIGHS
# notes: whole, on cells
# B2: human elk ligand (ligand, UniProt P98172 28-346, looked up)
# chain: LAKNLEPVSWSSLNPKFLSGKGLVIYPKIGDKLDIICPRAEAGRPYEYYKLYLVRPEQAAACSTVLDPNVLVTCNRPEQEIRFTIKFQEFSPNYMGLEFKKHHDYYITSTSNGSLEGLENREGGVCRTRTMKIIMKVGQDPNAVTPEQLTTSRPSKEADNTVKMATQAPGSRGSLGDSDGKHETVNQEEKSGPGASGGSSGDPDGFFNSKVALFAAVGAGCVIFLLIIIFLTVLLLKLRKRHRKHTQQRAAALSLSTLASPKGGSGTAGTEPSDIIIPLRTTENNYCPHYEKVSGDYGHPVYIVQEMPPQSPANIYYKV
# notes: whole, on cells
# B3: human hek ligand encoded by clone A2 (ligand)
# chain: LLAQGPGGALGNRHAVYWNSSNQHLRREGYTVQVNVNDYLDIYCPHYNSSGVGPGAGPGPGGGAEQYVLYMVSRNGYRTCNASQGFKRWECNRPHAPHSPIKFSEKFQRYSAFSLGYEFHAGHEYYYISTPTHNLHWKCLRMKVFVCCASTSHSGEKPVPTLPQFTMGPNVKINVLEDFEGENPQVPKLEKSIS
# modifications: GPI anchor at the C-terminus after cleavage (likely on Ser 194 in the filing's numbering; site not determined)
# notes: Expressed from the full-length clone A2 cDNA in pDC410 on CV1-EBNA-1 cells and held on the membrane by a GPI anchor; also called hek-L A2; hek ligand A2
# B4: human hek ligand encoded by clone C6 (ligand)
# chain: GSSLRHVVYWNSSNPRLLRGDAVVELGLNDYLDIVCPHYEGPGPPEGPETFALYMVDWPGYESCQAEGPRAYKRWVCSLPFGHVQFSEKIQRFTPFSLGFEFLPGETYYYISVPTPESSGQCLRLQVSVCCKERKSESAHPVGSPGES
# modifications: GPI anchor at the C-terminus after cleavage (likely on Ser 148 in the filing's numbering; site not determined)
# notes: Expressed from the full-length clone C6 cDNA in pDC410 on CV1-EBNA-1 cells and held on the membrane by a GPI anchor; also called hek-L C6; hek ligand C6
# What was measured:
# [1] = target: T1, soluble rat elk/Fc fusion protein (rat; human, UniProt P09759 18-540; P01857 99-330 = IgG part, limits assumed); assay: indirect Scatchard binding: elk/Fc titrated on CV1-EBNA-1 cells expressing B61, detected with 125I mouse anti-human IgG; biphasic, second component
# T1 construct: extracellular domain;domain: Fc region; The junction between elk and Fc is not described
# [2] = target: T1, soluble rat elk/Fc fusion protein; assay: indirect Scatchard binding: elk/Fc titrated on CV1-EBNA-1 cells expressing B61, detected with 125I mouse anti-human IgG; biphasic, first component (the cell prints 23, the text at paragraph 137 prints 2.3)
# [3] = target: T1, soluble rat elk/Fc fusion protein; assay: indirect Scatchard binding: elk/Fc titrated on CV1-EBNA-1 cells expressing B61; biphasic, first component as the text prints it (differs from the table's cell)
# [4] = target: T1, soluble rat elk/Fc fusion protein; assay: indirect Scatchard binding: elk/Fc titrated on CV1-EBNA-1 cells expressing elk-L, detected with 125I mouse anti-human IgG
# [5] = target: T1, soluble rat elk/Fc fusion protein; assay: indirect Scatchard binding: elk/Fc titrated on CV1-EBNA-1 cells expressing hek-L A2, detected with 125I mouse anti-human IgG; biphasic, first component
# [6] = target: T1, soluble rat elk/Fc fusion protein; assay: indirect Scatchard binding: elk/Fc titrated on CV1-EBNA-1 cells expressing hek-L A2, detected with 125I mouse anti-human IgG; biphasic, second component
# [7] = target: T1, soluble rat elk/Fc fusion protein; assay: indirect Scatchard binding: elk/Fc titrated on CV1-EBNA-1 cells expressing hek-L C6, detected with 125I mouse anti-human IgG; biphasic, second component
# [8] = target: T1, soluble rat elk/Fc fusion protein; assay: indirect Scatchard binding: elk/Fc titrated on CV1-EBNA-1 cells expressing hek-L C6, detected with 125I mouse anti-human IgG; biphasic, first component
# T1 sequence (P09759 other isoform, or with tags, fused parts or gaps limits assumed): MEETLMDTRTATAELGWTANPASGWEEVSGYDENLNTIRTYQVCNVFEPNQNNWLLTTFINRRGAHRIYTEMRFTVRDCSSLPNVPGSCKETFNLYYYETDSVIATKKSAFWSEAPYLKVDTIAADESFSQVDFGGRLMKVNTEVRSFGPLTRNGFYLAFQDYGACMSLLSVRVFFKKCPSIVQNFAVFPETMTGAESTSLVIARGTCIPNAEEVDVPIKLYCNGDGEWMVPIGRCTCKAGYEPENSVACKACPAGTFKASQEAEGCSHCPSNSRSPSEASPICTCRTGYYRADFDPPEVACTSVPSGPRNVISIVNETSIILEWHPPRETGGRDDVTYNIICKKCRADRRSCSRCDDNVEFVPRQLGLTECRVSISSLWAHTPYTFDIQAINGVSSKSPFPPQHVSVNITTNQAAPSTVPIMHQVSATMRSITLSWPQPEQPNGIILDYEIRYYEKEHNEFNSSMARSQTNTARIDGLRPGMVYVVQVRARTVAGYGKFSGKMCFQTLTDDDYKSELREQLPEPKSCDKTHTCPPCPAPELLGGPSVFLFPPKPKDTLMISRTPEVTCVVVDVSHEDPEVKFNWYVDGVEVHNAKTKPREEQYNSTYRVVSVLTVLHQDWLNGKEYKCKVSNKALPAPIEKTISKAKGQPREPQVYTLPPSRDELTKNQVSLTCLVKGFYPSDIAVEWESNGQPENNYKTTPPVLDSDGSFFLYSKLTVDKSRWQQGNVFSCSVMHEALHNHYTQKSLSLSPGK
binder,measurement,setting,value
B1,Ka,[1],7e+07 M⁻¹
same,Ka,[2],2.3e+09 M⁻¹
same,Ka,[3],2.3e+08 M⁻¹
B2,Ka,[4],1.08e+09 M⁻¹
B3,Ka,[5],2.7e+08 M⁻¹
same,Ka,[6],3.5e+07 M⁻¹
B4,Ka,[7],5.4e+07 M⁻¹
same,Ka,[8],1.3e+08 M⁻¹
